Assay results taken from patent publication US20250281611A1 (BIOSCEPTRE AUST, published 2025).

Assays:
CD33 [1] = target: T1, CD33 (UniProt P20138 18-364, limits assumed); assay: flow cytometry, MOLM-13 cells, anti-His-FITC detection, ratio to no bridge
T1 construct: whole, on cells; also called Siglec-3; CD33 on MOLM-13 cells
Experimental: (§1) MOLM-13 cells were incubated with different CD33 BRIDGE variants at saturating concentrations. […] The MFI intensity correlates with the number of secondary antibodies bound to the CD33 BRIDGE variants that are only detected if they are bound to the MOLM-13 cells. MFI: median fluorescence intensity. BLItz: Bio-Layer interferometry (BLI) technology using HIS-tag identification tips. […] The higher the MFIR, the stronger the binding.

CD33 [2] = target: T1, CD33; assay: flow cytometry, MOLM-13 cells, anti-His-FITC detection
Experimental: as §1

nfP2X7 CAR 1 [3] = target: T2, nfP2X7 CAR 1; assay: flow cytometry, nfP2X7 CAR T cells (EGFR+), anti-His-FITC detection
T2 construct: Expressed on T cells with truncated EGFR as marker gene; also called anti-nfP2X7 receptor CAR 1; nfP2X7 targeted CAR on EGFR+ T cells
Experimental: (§2) nfP2X₇ CAR T cells were incubated with different BRiDGE variants at saturating concentrations. […] The MFI intensity correlates with the number of secondary bound antibodies bound to the BRiDGEs that are only detected if they are bound to the CAR T cells. EGFR was used as a marker gene to detect the CAR expression. Thus, the EGFR+ T cell population was defined as the CAR expressing cells and the EGFR− T cell population was defined as the CAR negative subset. MFI: median fluorescence intensity. EGFR: epidermal growth factor receptor. BLItz: Bio-Layer interferometry (BLI) technology using HIS-tag identification tips. HIS-tag MFI Ratio: relative index that is calculated by the testing condition MFI divided by the control MFI, which corresponds to the MFI measured on EGFR+ T cells (defined as CAR positive cells) divided by the MFI measured on the EGFR− T cells (defined as CAR negative cells). […] The higher the MFIR, the stronger the binding.

nfP2X7 CAR 1 [4] = target: T2, nfP2X7 CAR 1; assay: flow cytometry, CAR T cells, anti-His-FITC, EGFR+ MFI over background 0.4
Experimental: as §2

nfP2X7 CAR 1 [5] = target: T2, nfP2X7 CAR 1; assay: flow cytometry, CAR T cells, anti-His-FITC, EGFR+ over EGFR- cells
Experimental: as §2

T1 sequence (P20138 18-364 limits assumed): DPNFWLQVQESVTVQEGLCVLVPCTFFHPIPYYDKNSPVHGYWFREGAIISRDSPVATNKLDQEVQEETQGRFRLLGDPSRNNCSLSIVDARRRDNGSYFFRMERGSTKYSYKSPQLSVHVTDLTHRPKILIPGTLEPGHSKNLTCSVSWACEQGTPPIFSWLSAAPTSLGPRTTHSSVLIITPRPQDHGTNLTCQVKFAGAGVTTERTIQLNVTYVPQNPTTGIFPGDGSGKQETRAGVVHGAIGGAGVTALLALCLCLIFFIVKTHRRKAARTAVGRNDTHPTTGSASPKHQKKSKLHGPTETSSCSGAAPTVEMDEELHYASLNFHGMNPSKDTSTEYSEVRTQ

Binder	MFIR HisTag FITC (CD33 [1])	MFI HisTag FITC (CD33 [2])	MFI HisTag FITC in EGFR+ Population (nfP2X7 CAR 1 [3])	HisTag MFI Ratio (background 0.4) (nfP2X7 CAR 1 [4])	HisTag MFI Ratio of EGFR+/EGFR- (nfP2X7 CAR 1 [5])
CD33 BRIDGE variant B11 (Fab, Lintuzumab-based Fab bridging molecule) light: GHNYTTRNILPGLNITSTFHKTSGSGKGSEPKSSDKTHTGSDIQMTQSPSSLSASVGDRVTITCRASESVDNYGISFMNWFQQKPGKAPKLLIYAASNQGSGVPSRFSGSGSGTDFTLTISSLQPDDFATYYCQQSKEVPWTFGQGTKVEIKRTVAAPSVFIFPPSDEQLKSGTASVVCLLNNFYPREAKVQWKVDNALQSGNSQESVTEQDSKDSTYSLSSTLTLSKADYEKHKVYACEVTHQGLSSPVTKSFNRGECHHHHHH heavy: QVQLVQSGAEVKKPGSSVKVSCKASGYTFTDYNMHWVRQAPGQGLEWIGYIYPYNGGTGYNQKFKSKATITADESTNTAYMELSSLRSEDTAVYYCARGRPAMDYWGQGTLVTVSSASTKGPSVFPLAPSSKSTSGGTAALGCLVKDYFPEPVTVSWNSGALTSGVHTFPAVLQSSGLYSLSSVVTVPSSSLGTQTYICNVNHKPSNTKVDKKVEPKSCHHHHHH	11	7.39	1.2	3	2.7
CD33 BRIDGE variant B15 (Fab, Lintuzumab-based Fab bridging molecule) light: GHNYTTRNILPGLNITSGGGGSEPKSSDKTHTGGGGSDIQMTQSPSSLSASVGDRVTITCRASESVDNYGISFMNWFQQKPGKAPKLLIYAASNQGSGVPSRFSGSGSGTDFTLTISSLQPDDFATYYCQQSKEVPWTFGQGTKVEIKRTVAAPSVFIFPPSDEQLKSGTASVVCLLNNFYPREAKVQWKVDNALQSGNSQESVTEQDSKDSTYSLSSTLTLSKADYEKHKVYACEVTHQGLSSPVTKSFNRGECHHHHHH heavy: QVQLVQSGAEVKKPGSSVKVSCKASGYTFTDYNMHWVRQAPGQGLEWIGYIYPYNGGTGYNQKFKSKATITADESTNTAYMELSSLRSEDTAVYYCARGRPAMDYWGQGTLVTVSSASTKGPSVFPLAPSSKSTSGGTAALGCLVKDYFPEPVTVSWNSGALTSGVHTFPAVLQSSGLYSLSSVVTVPSSSLGTQTYICNVNHKPSNTKVDKKVEPKSCHHHHHH	11.4	7.64	1.5	3.8	3.1
CD33 BRIDGE variant B12 (Fab, Lintuzumab-based Fab bridging molecule) light: GHNYTTRNILPGLNITSTFHKTSGSGKGGGGSEPKSSDKTHTGSDIQMTQSPSSLSASVGDRVTITCRASESVDNYGISFMNWFQQKPGKAPKLLIYAASNQGSGVPSRFSGSGSGTDFTLTISSLQPDDFATYYCQQSKEVPWTFGQGTKVEIKRTVAAPSVFIFPPSDEQLKSGTASVVCLLNNFYPREAKVQWKVDNALQSGNSQESVTEQDSKDSTYSLSSTLTLSKADYEKHKVYACEVTHQGLSSPVTKSFNRGECHHHHHH heavy: QVQLVQSGAEVKKPGSSVKVSCKASGYTFTDYNMHWVRQAPGQGLEWIGYIYPYNGGTGYNQKFKSKATITADESTNTAYMELSSLRSEDTAVYYCARGRPAMDYWGQGTLVTVSSASTKGPSVFPLAPSSKSTSGGTAALGCLVKDYFPEPVTVSWNSGALTSGVHTFPAVLQSSGLYSLSSVVTVPSSSLGTQTYICNVNHKPSNTKVDKKVEPKSCHHHHHH	9.07	6.08	1.55	3.9	3.1
CD33 BRIDGE variant B16 (Fab, Lintuzumab-based Fab bridging molecule) light: GHNYTTRNILPGLNITSTFHKTSGSGKEPKSSDKTHTGGGGSDIQMTQSPSSLSASVGDRVTITCRASESVDNYGISFMNWFQQKPGKAPKLLIYAASNQGSGVPSRFSGSGSGTDFTLTISSLQPDDFATYYCQQSKEVPWTFGQGTKVEIKRTVAAPSVFIFPPSDEQLKSGTASVVCLLNNFYPREAKVQWKVDNALQSGNSQESVTEQDSKDSTYSLSSTLTLSKADYEKHKVYACEVTHQGLSSPVTKSFNRGECHHHHHH heavy: QVQLVQSGAEVKKPGSSVKVSCKASGYTFTDYNMHWVRQAPGQGLEWIGYIYPYNGGTGYNQKFKSKATITADESTNTAYMELSSLRSEDTAVYYCARGRPAMDYWGQGTLVTVSSASTKGPSVFPLAPSSKSTSGGTAALGCLVKDYFPEPVTVSWNSGALTSGVHTFPAVLQSSGLYSLSSVVTVPSSSLGTQTYICNVNHKPSNTKVDKKVEPKSCHHHHHH	9.36	6.27	1.83	4.6	3.4
CD33 BRIDGE variant B17 (Fab, Lintuzumab-based Fab bridging molecule) light: GHNYTTRNILPGLNITSTFHKTSGSGKGSEPKSSDKTHTGGGGSDIQMTQSPSSLSASVGDRVTITCRASESVDNYGISFMNWFQQKPGKAPKLLIYAASNQGSGVPSRFSGSGSGTDFTLTISSLQPDDFATYYCQQSKEVPWTFGQGTKVEIKRTVAAPSVFIFPPSDEQLKSGTASVVCLLNNFYPREAKVQWKVDNALQSGNSQESVTEQDSKDSTYSLSSTLTLSKADYEKHKVYACEVTHQGLSSPVTKSFNRGECHHHHHH heavy: QVQLVQSGAEVKKPGSSVKVSCKASGYTFTDYNMHWVRQAPGQGLEWIGYIYPYNGGTGYNQKFKSKATITADESTNTAYMELSSLRSEDTAVYYCARGRPAMDYWGQGTLVTVSSASTKGPSVFPLAPSSKSTSGGTAALGCLVKDYFPEPVTVSWNSGALTSGVHTFPAVLQSSGLYSLSSVVTVPSSSLGTQTYICNVNHKPSNTKVDKKVEPKSCHHHHHH	11	7.36	1.58	4	3.2
CD33 BRIDGE variant B8 (Fab, V domains shown, Lintuzumab-based Fab bridging molecule) VH: QVQLVQSGAEVKKPGSSVKVSCKASGYTFTDYNMHWVRQAPGQGLEWIGYIYPYNGGTGYNQKFKSKATITADESTNTAYMELSSLRSEDTAVYYCARGRPAMDYWGQGTLVTVSS VL: DIQMTQSPSSLSASVGDRVTITCRASESVDNYGISFMNWFQQKPGKAPKLLIYAASNQGSGVPSRFSGSGSGTDFTLTISSLQPDDFATYYCQQSKEVPWTFGQGTKVEIKR	9.75	6.53	1.34	3.4	2.9
CD33 BRIDGE variant B14 (Fab, V domains shown, Lintuzumab-based Fab bridging molecule) VH: QVQLVQSGAEVKKPGSSVKVSCKASGYTFTDYNMHWVRQAPGQGLEWIGYIYPYNGGTGYNQKFKSKATITADESTNTAYMELSSLRSEDTAVYYCARGRPAMDYWGQGTLVTVSS VL: DIQMTQSPSSLSASVGDRVTITCRASESVDNYGISFMNWFQQKPGKAPKLLIYAASNQGSGVPSRFSGSGSGTDFTLTISSLQPDDFATYYCQQSKEVPWTFGQGTKVEIKR	9.97	6.68	1.44	3.6	2.9
CD33 BRIDGE variant B9 (Fab, V domains shown, Lintuzumab-based Fab bridging molecule) VH: QVQLVQSGAEVKKPGSSVKVSCKASGYTFTDYNMHWVRQAPGQGLEWIGYIYPYNGGTGYNQKFKSKATITADESTNTAYMELSSLRSEDTAVYYCARGRPAMDYWGQGTLVTVSS VL: DIQMTQSPSSLSASVGDRVTITCRASESVDNYGISFMNWFQQKPGKAPKLLIYAASNQGSGVPSRFSGSGSGTDFTLTISSLQPDDFATYYCQQSKEVPWTFGQGTKVEIKR	9.45	6.33	1.16	2.9	2.8
CD33 BRIDGE variant B13 (Fab, V domains shown, Lintuzumab-based Fab bridging molecule) VH: QVQLVQSGAEVKKPGSSVKVSCKASGYTFTDYNMHWVRQAPGQGLEWIGYIYPYNGGTGYNQKFKSKATITADESTNTAYMELSSLRSEDTAVYYCARGRPAMDYWGQGTLVTVSS VL: DIQMTQSPSSLSASVGDRVTITCRASESVDNYGISFMNWFQQKPGKAPKLLIYAASNQGSGVPSRFSGSGSGTDFTLTISSLQPDDFATYYCQQSKEVPWTFGQGTKVEIKR	10.1	6.78	1.35	3.4	2.9
